# Substitutions are numbered along the chain they refer to.
# T1: recombinant human heparanase (active, 8 and 50 kDa sub-units, from baculovirus-infected Hi5 cells) (human, UniProt Q9Y251 36-109; Q9Y251 158-543)
# T1 sequence (looked up) 1: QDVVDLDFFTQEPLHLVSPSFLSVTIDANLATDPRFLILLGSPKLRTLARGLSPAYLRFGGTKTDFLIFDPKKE
# T1 sequence (looked up) 2: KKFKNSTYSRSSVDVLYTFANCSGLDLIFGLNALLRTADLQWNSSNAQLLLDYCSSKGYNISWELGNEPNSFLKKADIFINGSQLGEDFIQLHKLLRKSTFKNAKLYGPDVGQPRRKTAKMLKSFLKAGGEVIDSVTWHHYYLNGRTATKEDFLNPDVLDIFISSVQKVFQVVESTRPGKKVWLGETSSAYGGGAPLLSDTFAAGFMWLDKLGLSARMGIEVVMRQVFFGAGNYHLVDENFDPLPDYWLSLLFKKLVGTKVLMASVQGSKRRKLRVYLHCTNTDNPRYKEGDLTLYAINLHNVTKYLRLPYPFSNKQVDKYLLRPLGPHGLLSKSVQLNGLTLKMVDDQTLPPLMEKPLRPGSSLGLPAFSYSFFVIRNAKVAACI
# T2: cynomolgus heparanase (cynomolgus, UniProt A0A2K5UQU0 87-593)
# T2 construct: also called recombinant cynomolgus heparanase
# T2 sequence: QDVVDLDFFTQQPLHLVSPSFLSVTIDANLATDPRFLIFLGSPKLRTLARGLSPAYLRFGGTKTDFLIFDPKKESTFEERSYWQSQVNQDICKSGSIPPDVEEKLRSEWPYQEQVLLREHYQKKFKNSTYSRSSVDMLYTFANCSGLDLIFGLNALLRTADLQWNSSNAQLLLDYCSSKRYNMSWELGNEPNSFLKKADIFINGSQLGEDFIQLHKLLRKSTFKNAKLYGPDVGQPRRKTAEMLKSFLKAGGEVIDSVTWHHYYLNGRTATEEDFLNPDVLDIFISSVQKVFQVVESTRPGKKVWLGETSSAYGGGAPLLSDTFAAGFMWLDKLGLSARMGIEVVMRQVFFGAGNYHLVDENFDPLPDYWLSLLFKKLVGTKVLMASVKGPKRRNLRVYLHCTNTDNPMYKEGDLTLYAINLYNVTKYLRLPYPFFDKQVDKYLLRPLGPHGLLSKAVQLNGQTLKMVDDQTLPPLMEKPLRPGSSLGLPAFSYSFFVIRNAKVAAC
# T3: murine heparanase (murine, UniProt Q6YGZ1 28-535, limits assumed)
# T3 construct: also called Mouse; recombinant murine heparanase
# T3 sequence (looked up): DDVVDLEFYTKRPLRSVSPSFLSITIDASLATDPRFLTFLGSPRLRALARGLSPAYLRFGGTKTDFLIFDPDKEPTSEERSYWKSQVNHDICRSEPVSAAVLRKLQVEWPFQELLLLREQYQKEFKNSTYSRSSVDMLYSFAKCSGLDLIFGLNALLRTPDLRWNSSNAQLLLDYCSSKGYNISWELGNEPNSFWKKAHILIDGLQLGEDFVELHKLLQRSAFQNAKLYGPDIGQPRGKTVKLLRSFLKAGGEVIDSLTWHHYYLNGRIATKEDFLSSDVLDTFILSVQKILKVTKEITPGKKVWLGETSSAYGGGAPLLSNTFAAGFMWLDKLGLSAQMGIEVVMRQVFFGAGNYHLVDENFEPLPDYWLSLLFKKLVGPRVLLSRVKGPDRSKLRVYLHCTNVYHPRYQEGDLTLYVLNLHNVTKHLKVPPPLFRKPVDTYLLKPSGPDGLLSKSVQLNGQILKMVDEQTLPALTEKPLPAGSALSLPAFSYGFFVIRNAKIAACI
# T4: human heparanase as used in the cross species capture ELISA (human, UniProt Q9Y251 36-543, limits assumed)
# T4 construct: Captured on plates by a rabbit anti-heparanase antibody
# T4 sequence (looked up): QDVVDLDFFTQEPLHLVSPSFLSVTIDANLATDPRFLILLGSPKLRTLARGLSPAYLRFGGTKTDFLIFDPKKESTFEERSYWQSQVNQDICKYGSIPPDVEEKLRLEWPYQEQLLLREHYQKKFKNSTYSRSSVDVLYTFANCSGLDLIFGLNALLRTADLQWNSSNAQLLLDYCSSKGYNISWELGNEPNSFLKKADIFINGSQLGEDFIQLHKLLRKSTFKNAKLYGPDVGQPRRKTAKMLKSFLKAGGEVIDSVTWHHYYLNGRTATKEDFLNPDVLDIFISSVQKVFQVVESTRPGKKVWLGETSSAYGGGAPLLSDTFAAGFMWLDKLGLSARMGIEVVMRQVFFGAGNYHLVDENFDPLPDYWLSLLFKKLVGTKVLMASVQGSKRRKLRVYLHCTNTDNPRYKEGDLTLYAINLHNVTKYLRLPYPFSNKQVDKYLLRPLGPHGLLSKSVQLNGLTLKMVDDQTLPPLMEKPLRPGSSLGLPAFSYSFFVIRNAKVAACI
# B1: monoclonal antibody 15A11.1 (antibody, V domains shown)
# VH: QVQLVQSGAEVKKPGASVKVSCKVSGDTLTELSMHWVRQTPGKGLEWMGGFDPEDGETIYAQKFQGRVTMTGDTSTDTAYMELSSLRSEDTAVYYCATEGDYGDSEEYYYYYGMDVWGQGTTVTVSS
# VL: DIQMTQSPSSLSASVGDRVTITCRASQGISNYLAWYQQKPGKVPKLLIYAASTLQSGVPSRFSGSGSGTDFTLTISSLQPEDVATYYCQKYNRAPFTFGPGTKVDIK
# notes: Fully human (XenoMouse) antibody; also called ATCC PTA-9490
# B2: monoclonal antibody 10E9.1 (antibody, V domains shown)
# VH: QVQLVQSGAEVKKPGASVKVSCKVSGYSLTELSIHWVRQAPGKGLEWMGGFDPEDGEIIFAQKFQGRVTLTEDISLDTAYMEVSSLRSEDTAVYYCATEGHDSGDYVGYYYYGLDVWGQGTTVTVSS
# VL: B1 VL with G28D, S30R, Y32F, V43L, T85S, K90S, Y91H, R93S, A94V, K107R
# notes: Fully human (XenoMouse) antibody; also called mAb 10E9.1; ATCC PTA-9489
# B3: monoclonal antibody 7B9.1 (antibody, V domains shown)
# VH: QVQLVESGGGVVQPGRSLRLSCAASGFTFSSYGMHWVRQAPGKGLEWVAVIWYDGSNKYYADSVKGRFTISRDNSKNTLYLQMNSLRAEDTAVYYCAREGAPYSSSDAFDIWGQGTMVTVSS
# VL: QSVLTQPPSVSGAPGQRVTISCTGSSSNIGANYDVHWYQQLPGTAPKLLIYGDNNRPSGVPDRFSGSKSGTSASLAITGLQAEDEADYYCQSYDSSLSGSVFGGGTKLTVL
# notes: Fully human (XenoMouse) antibody
# B4: monoclonal antibody 16G1.1 (antibody, V domains shown)
# VH: QVQLVESGGGVVQPGRSLRLSCAASGFTFSSYGMHWVRQAPGKGLEWVAVIWYDGSNKYYADSVKGRFTISRDNSKNTLNLQMNSLRAEDTAVYYCGRDPGTYHYYYHGMDVWGQGTTVTVSS
# VL: YIVMTQSPLSLPVTPGEPASISCRSSQSLLHSNGYNFLDWYLQKPGQSPQLLIYLGSNRASGVPDRFSGSGSGTDFTLKINRVEAEDVGVYYCMQALQTPITFGQGTRLEIK
# notes: as for B3
# B5: monoclonal antibody 16E1.1 (antibody, V domains shown)
# VH: QVQLQESGPGLVKPSQTLSLTCTVSGGSISSGGYYWSWIRQHPGKGLEWIGFIYYSGSTFYNPSLKSRITISVDTSKNQFSLKLSSVTAADTAVYYCARPYSSSWYGAFDIWGQGTMVTVSS
# VL: SYELTQPPSVSVSPGRTASITCSEDKLGNKYAYWYQQKPGQSPVLVIYQDSERPSGIPERFSGSNSGNTATLTISGTQAMDEADYYCQAWDSSTVVFGGGTKLTVL
# notes: as for B3
# B6: monoclonal antibody 14H12.3 (antibody, V domains shown)
# VH: QVQLVESGGGVVQPGRSLRLSCAASGFTFSSYGMHWVRQAPGKGLEWVAVIWYDGSNKDYADSVKGRFTISRDNSKNTLYLQMNSLRAEDTAVYYCAREGSTSWTDYYGMDVWGQGTTVTVSS
# VL: SYELTQPPSVSVSPGQTARITCSGDALPKRYAYWYQQKSGQALVLVIYEDSKRPSGIPERFSGSSSGTMATLTISGAQVEDEADYYCYSIDSSGNHGVFGGGTKLTVL
# notes: as for B3
# B7: monoclonal antibody 15A1.2 (antibody, V domains shown)
# VH: QVQLVQSGAEVKKPGASVKVSCKVSGYTLTELSMHWVRQAPGKGLEWMGGFDPEDGETIFAQKFQGRVTMTEDTSTDTAYMELSSLRSEDTAVYYCATGLRFLEWFLWGWDVWGQGTTVTVSS
# VL: DIQMTQSPSSVSASVGDRVTITCRASQGISNWLAWYQQTPGKAPQLLIYGASSLQSGVPSRFSGSGSGTDFTLTISSLQPEDFATYYCQQADSFPPTFGQGTKVEIK
# notes: Fully human (XenoMouse) antibody; also called ATCC PTA-9491
# Biological target: T1, recombinant human heparanase (active, 8 …)
# Assay: cell-based or functional assay
Binder,"Inhibition of recombinant human heparanase %, Assay 1 [%]","Inhibition of recombinant human heparanase %, Assay 2 [%]"
B1,75,87
B2,88,99
B3,63,54
B4,44,53
B5,40,51
B6,58,85
B7,81,91

# Biological target: T1, recombinant human heparanase (active, 8 …)
# Assay: ELISA, hybridoma supernatant on directly coated recombinant human heparanase
row,Binder,"OD, binding to direct coated heparanase [OD units]"
1,B1,0.07
2,B2,0.2
3,B3,3.78
4,B4,3.63
5,B5,0.15
6,B6,3.69
7,B7,0.08

# Biological target: T2, cynomolgus heparanase
# Assay: cross species capture ELISA, heparanase captured by rabbit anti-heparanase antibody, exhaustive supernatant 1:5, anti-human IgG Fc detection
# Procedure: (§1) Initially, cross species binding to human, murine and cynomolgus heparanase was determined in an ELISA assay in which heparanase was captured onto plates using a rabbit anti-heparanase antibody (Raybiotech, Cat. IP-14-155). Exhaustive supernatants were added to the plates at a final dilution of 1:5 and bound antibody detected with a rabbit anti-human IgG Fc.
row,Binder,"OD, binding to heparanase (Cyno) [OD units]"
1,B1,0.14
2,B2,1.4
3,B3,1.06
4,B4,1.64
5,B5,1.66
6,B6,0.95

# Biological target: T3, murine heparanase
# Assay: as above
# Procedure: as §1
row,Binder,"OD, binding to heparanase (Mouse) [OD units]"
1,B1,0.17
2,B2,0.49
3,B3,0.58
4,B4,0.61
5,B5,0.63
6,B6,0.14
7,B7,0.14

# Biological target: T4, human heparanase as used in the cross …
# Assay: as above
# Procedure: as §1
row,Binder,"OD, binding to heparanase (Human) [OD units]"
1,B1,0.21
2,B2,0.63
3,B3,0.68
4,B4,1.84
5,B5,1.08
6,B6,0.61
7,B7,0.19

# Biological target: T1, recombinant human heparanase (active, 8 …)
# Assay: medium resolution Biacore, antibody captured on goat anti-human antibody CM4 chip, recombinant Hpa1 at 1 nM and 10 nM, 25 C, 1:1 model with mass transport
# Procedure: For medium resolution Biacore™ tests, cloned and purified antibodies were used. Each of three purified antibodies (10E9.1, 15A1.2, and 15A11.1) were captured onto a high-density goat anti-human antibody surface over a CM4 Biacore™ chip. Recombinant Hpa1 was diluted to the desired concentration (1 nM and 10 nM) in 10 mM HEPES, 150 mM NaCl, 0.005% tween-20, 0.1 mg per ml BSA pH7.4 (25° C.) immediately prior to injection. Data were fit globally to a 1:1 interaction model with a term for mass transport included. The resulting KD values are summarised below in Table 4.
Binder,Kd [nM],koff [s⁻¹],kon [M⁻¹ s⁻¹]
B1,0.056,0.000309,3.6e+06
B2,0.0545,0.000112,2.06e+06
B7,0.056,0.000105,1.88e+06

# Source: patent US20100233154A1 (AstraZeneca / MedImmune, published 2010)
